Test results: patent publication US20230416329A1 (INSTITUTE OF MATERIA MEDICA CHINESE ACADEMY OF MEDICAL …, published 2023)
Bridge positions count the residues as written; N and C are the ends. Ends that are not written are not given here.

B1: BT9 (peptide)
peptide: CGRATKSIPPICF
modifications: disulfide 1-12 (inferred)
B2: BT56 (peptide)
peptide: CGRHTKSIPPICF
modifications: disulfide 1-12 (inferred)
B3: BT75 (peptide)
peptide: CSRATKSIPPICF
modifications: disulfide 1-12 (inferred)
B4: BT25 (peptide)
peptide: CGTATKSIPPICF
modifications: disulfide 1-12 (inferred)
B5: BT78 (peptide)
peptide: CERATKSIPPICF
modifications: disulfide 1-12 (inferred)
B6: BT67 (peptide)
peptide: CARATKSIPPICF
modifications: disulfide 1-12 (inferred)
B7: BT27 (peptide)
peptide: CGRATKAIPPICF
modifications: disulfide 1-12 (inferred)
B8: BT72 (peptide)
peptide: CLRATKSIPPICF
modifications: disulfide 1-12 (inferred)
B9: BT55 (peptide)
peptide: CGRNTKSIPPICF
modifications: disulfide 1-12 (inferred)
B10: BT54 (peptide)
peptide: CGRQTKSIPPICF
modifications: disulfide 1-12 (inferred)
B11: BT57 (peptide)
peptide: CGRWTKSIPPICF
modifications: disulfide 1-12 (inferred)
B12: BT66 (peptide)
peptide: CPRATKSIPPICF
modifications: disulfide 1-12 (inferred)
B13: BT51 (peptide)
peptide: CGRVTKSIPPICF
modifications: disulfide 1-12 (inferred)
B14: BT21 (peptide)
peptide: CGRATRSAPPICF
modifications: disulfide 1-12 (inferred)
B15: BT76 (peptide)
peptide: CRRATKSIPPICF
modifications: disulfide 1-12 (inferred)
B16: BT22 (peptide)
peptide: CGRATRAIPPICF
modifications: disulfide 1-12 (inferred)
B17: BT17 (peptide)
peptide: CGRATRSIPPICF
modifications: disulfide 1-12 (inferred)
B18: BT52 (peptide)
peptide: CGRFTKSIPPICF
modifications: disulfide 1-12 (inferred)
B19: BT16 (peptide)
peptide: CGRATKSLPAICF
modifications: disulfide 1-12 (inferred)
B20: BT53 (peptide)
peptide: CGRYTKSIPPICF
modifications: disulfide 1-12 (inferred)
B21: BT73 (peptide)
peptide: CIRATKSIPPICF
modifications: disulfide 1-12 (inferred)
B22: BT48 (peptide)
peptide: CGRLTKSIPPICF
modifications: disulfide 1-12 (inferred)
B23: BT49 (peptide)
peptide: CGRITKSIPPICF
modifications: disulfide 1-12 (inferred)
B24: BT47 (peptide)
peptide: CGRSTKSIPPICF
modifications: disulfide 1-12 (inferred)
B25: BT24 (peptide)
peptide: CGTATKSIPPICN
modifications: disulfide 1-12 (inferred)
B26: BT59 (peptide)
peptide: CGRPTKSIPPICF
modifications: disulfide 1-12 (inferred)
B27: BT71 (peptide)
peptide: CVRATKSIPPICF
modifications: disulfide 1-12 (inferred)
B28: BT26 (peptide)
peptide: CGRAAKSIPPICF
modifications: disulfide 1-12 (inferred)
B29: BT10 (peptide)
peptide: CGRATKSIPAICF
modifications: disulfide 1-12 (inferred)
B30: BT58 (peptide)
peptide: CGRETKSIPPICF
modifications: disulfide 1-12 (inferred)
B31: BT18 (peptide)
peptide: CGRATRSIPPICY
modifications: disulfide 1-12 (inferred)
B32: BT79 (peptide)
peptide: CQRATKSIPPICF
modifications: disulfide 1-12 (inferred)
B33: BT77 (peptide)
peptide: CKRATKSIPPICF
modifications: disulfide 1-12 (inferred)
B34: BT19 (peptide)
peptide: CGRATRSIPPICA
modifications: disulfide 1-12 (inferred)
B35: BT15 (peptide)
peptide: CGRATRSIPPACF
modifications: disulfide 1-12 (inferred)
B36: BT60 (peptide)
peptide: CGRGTKSIPPICF
modifications: disulfide 1-12 (inferred)
B37: BT65 (peptide)
peptide: RCTKSLPPQCS
modifications: disulfide 2-10 (inferred)
B38: BT5 (peptide)
peptide: CGRATKSIPPICFPD
modifications: disulfide 1-12 (inferred)
B39: BT6 (peptide)
peptide: CGSATKSIPPICFPD
modifications: disulfide 1-12 (inferred)
B40: BT7 (peptide)
peptide: CGAATKSIPPICFPD
modifications: disulfide 1-12 (inferred)
B41: BT64 (peptide)
peptide: RCTKSNPPQCQ
modifications: disulfide 2-10 (inferred)
B42: BT45 (peptide)
peptide: RCTKSIPPICF
modifications: disulfide 2-10 (inferred)
notes: also called truncated monocyclic SFTI-1 mutant
B43: BT62 (peptide)
peptide: RCTKSIPPHCF
modifications: disulfide 2-10 (inferred)
B44: BT63 (peptide)
peptide: RCTKSIPPQCH
modifications: disulfide 2-10 (inferred)
B45: BT61 (peptide)
peptide: RCTRSIPPHCW
modifications: disulfide 2-10 (inferred)
B46: BT68 (peptide)
peptide: ACTKSNPPQCR
modifications: disulfide 2-10 (inferred)

Biological target: bovine trypsin (bovine, UniProt P00760 24-246)
Test: trypsin inhibition, BApNA substrate
Experimental: The substrates N-succinyl-Ala-Ala-Pro-Phe-p-nitroaniline (AAPFpNA), Nα—Benzoyl-L-arginine-4-nitroaniline hydrochloride (BApNA) and N-succinyl-[…] (AAApNA) are used in competitive binding reaction to determine the inhibitory activities against α-chymotrypsin, bovine trypsin, and porcine pancreatic elastase, respectively. Experiments for α-chymotrypsin and bovine trypsin inhibition were measured in 20 mM CaCl₂, 50 mM Tris-HCl buffer (pH 7.8), and that for porcine elastase inhibition was measured in 50 mM Tris-HCl buffer (pH 8.0). The concentration of the peptide was measured using optical density (OD) at 280 nm. The Michaelis constant (Kₘ) of the enzyme hydrolysis substrate is calculated from the initial rate of substrate hydrolysis at 405 nm. The absorbance value of the substrate was measured at 405 nm after complete hydrolysis. All data were processed using nonlinear regression.
(1) Added a total 190 μL of reaction buffer (20 mM CaCl₂ and 50 mM Tris-HCl, pH 7.8) along with different concentrations of anti-trypsin peptides (BTs) into the pre-cooled 96-well plate, followed by preheating at 37° C., and spined down at 500 rpm for 5 min. Next added 10 μL of 1 μM trypsin, incubated at 37° C., and then spined down at 500 rpm for 10 min. Finally, added 5 μL of 50 mM BApNA, and mixed by centrifugation at 500 rpm for 1 min. […] The experiment was performed in triplicate. The blank control only contained the reaction buffer and the substrate as the minimum absorption value (Min OD_{405 nm}). The negative control only contained the reaction buffer, the enzyme and the substrate as the maximum absorption value (Max OD_{405 nm}). […] (2) In the reaction system of 205 μL, the final concentrations of trypsin and BApNA were 50 nM and 1.22 mM, respectively. [0456] (3) Data statistics

Chain of bovine trypsin (P00760 24-246): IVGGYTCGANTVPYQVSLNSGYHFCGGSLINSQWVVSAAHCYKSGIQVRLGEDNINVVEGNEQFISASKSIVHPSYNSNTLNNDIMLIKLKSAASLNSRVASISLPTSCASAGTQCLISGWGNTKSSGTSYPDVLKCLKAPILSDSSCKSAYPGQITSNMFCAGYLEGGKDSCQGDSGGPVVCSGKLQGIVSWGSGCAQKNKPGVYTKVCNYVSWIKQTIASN

Row | Binder | IC50 | Ki | fold decrease in inhibitory activity compared to BT9
1 | B1 | 70 nM | 10 nM | –
2 | B2 | 110 nM | 20 nM | –
3 | B3 | 40 nM | 8.5 nM | –
4 | B4 | 970 nM | 210 nM | –
5 | B5 | 30 nM | 6.4 nM | –
6 | B6 | 50 nM | 10 nM | –
7 | B7 | 280 nM | 60 nM | –
8 | B8 | 130 nM | 30 nM | –
9 | B9 | 300 nM | 60 nM | –
10 | B10 | 60 nM | 10 nM | –
11 | B11 | 130 nM | 30 nM | –
12 | B12 | 60 nM | 10 nM | –
13 | B13 | 410 nM | 90 nM | –
14 | B14 | 18100 nM | 3850 nM | –
15 | B15 | 50 nM | 10 nM | –
16 | B16 | 4680 nM | 1000 nM | –
17 | B17 | 580 nM | 120 nM | ~12 fold
18 | B18 | 130 nM | 30 nM | –
19 | B19 | 910 nM | 190 nM | –
20 | B20 | 120 nM | 30 nM | –
21 | B21 | 120 nM | 30 nM | –
22 | B22 | 180 nM | 40 nM | –
23 | B23 | 500 nM | 110 nM | –

Row | Binder | IC50 | Ki | fold decrease in inhibitory activity compared to BT9
24 | B24 | 50 nM | 10 nM | –
25 | B25 | 33900 nM | 7220 nM | –
26 | B26 | 26300 nM | 5590 nM | –
27 | B27 | 110 nM | 20 nM | –
28 | B28 | 2500 nM | 530 nM | –
29 | B29 | 110 nM | 20 nM | –
30 | B30 | 120 nM | 30 nM | –
31 | B31 | 39400 nM | 8380 nM | –
32 | B32 | 50 nM | 10 nM | –
33 | B33 | 40 nM | 8.5 nM | –
34 | B34 | 43400 nM | 9250 nM | –
35 | B35 | 4490 nM | 960 nM | –
36 | B36 | 430 nM | 90 nM | –
37 | B37 | 620 nM | 130 nM | –
38 | B38 | 160 nM | 30 nM | –
39 | B39 | 290 nM | 60 nM | –
40 | B40 | 230 nM | 50 nM | –
41 | B41 | 3430 nM | 730 nM | –
42 | B42 | 30 nM | 6.4 nM | –
43 | B43 | 70 nM | 10 nM | –
44 | B44 | 90 nM | 20 nM | –
45 | B45 | 890 nM | 190 nM | –
46 | B46 | 2430 nM | 520 nM | –
